Results as given in publication PMC3701619, “High Levels of DegU-P Activate an Esat-6-Like Secretion System in Bacillus subtilis” (PLoS ONE, 2013).

B1: YukE-His6 (natural protein, B. subtilis, UniProt C0SP85 1-97, looked up)
chain: MAGLIRVTPEELRAMAKQYGVESQEVLNQVDRLNRMISDLKSMWEGASSEAFADQYEQLKPSFIKMSDLLQDVNQQLDQTANTLESTDQDIANQIRG
notes: YukE, WXG100 protein of Bacillus subtilis; YukE-His6 is 12.17 kDa; The vector may add linker residues between YukE and the His6 tag; The vector is named pIVEX3.2d once and pIVEX2.3d once; also called recombinant YukE; YukE C-terminally tagged with a hexahistidine tail; not shown: His6, C-terminal, kept
B2: native YukE (natural protein, UniProt C0SP85 1-97, looked up)
chain: B1 chain
notes: YukE, WXG100 protein of Bacillus subtilis, as secreted to the culture medium; predicted mass of the native dimer ~22 kDa; the protein here is from an ATCC 6051 derivative; also called YukE present in a concentrated culture supernatant of strain W654

Experiments:
[1] = biological target: the molecule itself; assay: cross-linking; pure YukE-His6 (0.4 to 10.3 uM with 0.25 mM BS3; 20 to 84 uM with 1 mM BS3) in YukE buffer (50 mM HEPES-Na pH 7.0, 300 mM NaCl), 30 min at room temperature; 15% SDS-PAGE, Coomassie staining or Western blot with anti-YukE-His6
[2] = biological target: the molecule itself; assay: cross-linking; concentrated, dialysed (25 mM HEPES pH 7, 250 mM NaCl) cell-free supernatant of a W654 culture at T2, 2.5 ug total protein, 1 mM or 5 mM BS3, 30 min at room temperature; Western blot with anti-YukE-His6

| Protein | stoichiometry N [1] | stoichiometry N [2] |
| --- | --- | --- |
| B1 | 2 |  |
| B2 |  | 2 |
